Measured values as given in publication PMC3431827.

Molecular target: 2,4,6-TCP 4-monooxygenase (TcpA) from Cupriavidus necator JMP134 (Cupriavidus necator JMP134)
Test: SEC-MALS; 100 μg TcpA on BioSep-SEC-S 2000 column, isocratic, 0.5 mL/min; multi-angle laser light scattering; tetramer

2,4,6-TCP 4-monooxygenase (TcpA) from Cupriavidus necator JMP134 (enzyme)
stoichiometry N: 4
